In doi:10.1101/2021.04.26.441533 (bioRxiv, 2021):

Assays:
Assay in all cases: single-molecule magnetic tweezers
[1] = molecular target: T1, Full-length vinculin (FL-vinculin) (UniProt P18206-2 1-1066)
T1 sequence (looked up): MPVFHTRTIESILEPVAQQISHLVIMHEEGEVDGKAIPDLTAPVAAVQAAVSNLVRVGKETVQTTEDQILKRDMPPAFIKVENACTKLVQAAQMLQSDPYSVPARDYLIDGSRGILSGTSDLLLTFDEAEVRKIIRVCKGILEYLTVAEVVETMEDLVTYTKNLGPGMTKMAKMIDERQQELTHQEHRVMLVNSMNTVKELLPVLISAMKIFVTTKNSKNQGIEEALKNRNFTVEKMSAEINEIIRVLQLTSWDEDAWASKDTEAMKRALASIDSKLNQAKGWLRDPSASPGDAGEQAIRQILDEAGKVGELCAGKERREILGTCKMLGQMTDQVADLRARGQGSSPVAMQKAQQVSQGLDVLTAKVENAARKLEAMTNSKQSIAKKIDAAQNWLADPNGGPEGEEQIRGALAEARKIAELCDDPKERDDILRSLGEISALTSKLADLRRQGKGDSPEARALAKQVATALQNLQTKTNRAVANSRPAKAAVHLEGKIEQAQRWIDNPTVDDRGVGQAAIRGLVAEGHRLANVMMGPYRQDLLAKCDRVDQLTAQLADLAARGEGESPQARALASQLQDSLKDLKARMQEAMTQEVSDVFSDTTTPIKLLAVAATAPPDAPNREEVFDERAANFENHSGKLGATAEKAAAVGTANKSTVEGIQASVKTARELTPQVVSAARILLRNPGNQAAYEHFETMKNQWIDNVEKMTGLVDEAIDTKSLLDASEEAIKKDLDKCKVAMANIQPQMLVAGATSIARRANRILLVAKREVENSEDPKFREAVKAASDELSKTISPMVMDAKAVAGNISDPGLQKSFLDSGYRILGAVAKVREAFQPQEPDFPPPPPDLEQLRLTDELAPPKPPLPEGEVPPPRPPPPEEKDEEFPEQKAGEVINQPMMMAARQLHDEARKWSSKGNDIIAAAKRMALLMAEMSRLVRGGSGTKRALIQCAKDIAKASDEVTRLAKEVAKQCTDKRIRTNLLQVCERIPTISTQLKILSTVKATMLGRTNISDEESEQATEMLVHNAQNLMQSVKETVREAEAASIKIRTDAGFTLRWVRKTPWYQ

vinculin T12 mutant = molecular target: T2, vinculin T12 mutant (UniProt P18206-2 1-1066, D974A | K975A | R976A | R978A)
T2 sequence (looked up): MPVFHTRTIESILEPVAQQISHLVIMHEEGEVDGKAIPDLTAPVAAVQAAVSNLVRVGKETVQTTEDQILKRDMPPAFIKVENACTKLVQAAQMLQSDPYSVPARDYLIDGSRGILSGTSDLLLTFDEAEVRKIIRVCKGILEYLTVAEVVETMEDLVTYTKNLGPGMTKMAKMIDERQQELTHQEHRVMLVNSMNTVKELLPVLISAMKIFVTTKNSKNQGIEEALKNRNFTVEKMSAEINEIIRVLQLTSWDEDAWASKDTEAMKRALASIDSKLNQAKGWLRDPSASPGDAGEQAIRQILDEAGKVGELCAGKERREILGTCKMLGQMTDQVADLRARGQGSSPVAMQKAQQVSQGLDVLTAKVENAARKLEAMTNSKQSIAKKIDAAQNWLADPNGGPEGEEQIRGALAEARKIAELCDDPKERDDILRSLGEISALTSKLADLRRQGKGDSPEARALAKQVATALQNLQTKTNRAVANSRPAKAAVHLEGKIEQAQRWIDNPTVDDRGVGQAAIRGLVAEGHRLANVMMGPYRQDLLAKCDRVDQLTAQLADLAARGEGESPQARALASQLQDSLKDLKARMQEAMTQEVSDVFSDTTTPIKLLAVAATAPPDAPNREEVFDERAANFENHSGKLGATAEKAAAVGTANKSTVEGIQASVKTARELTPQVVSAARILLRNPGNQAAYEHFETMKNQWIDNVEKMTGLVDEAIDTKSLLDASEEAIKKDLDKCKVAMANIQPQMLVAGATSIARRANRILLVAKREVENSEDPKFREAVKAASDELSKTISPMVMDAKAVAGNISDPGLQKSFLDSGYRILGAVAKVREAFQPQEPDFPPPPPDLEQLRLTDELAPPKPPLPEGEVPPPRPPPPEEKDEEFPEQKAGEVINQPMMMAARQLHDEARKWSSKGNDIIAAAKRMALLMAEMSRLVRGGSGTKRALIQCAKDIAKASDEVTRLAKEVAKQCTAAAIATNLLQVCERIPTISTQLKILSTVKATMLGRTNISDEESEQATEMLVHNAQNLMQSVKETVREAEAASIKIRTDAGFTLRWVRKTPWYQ

vinculin head (D1-D4) = molecular target: T3, vinculin head (D1-D4) (UniProt P18206-2 1-835)
T3 sequence (looked up): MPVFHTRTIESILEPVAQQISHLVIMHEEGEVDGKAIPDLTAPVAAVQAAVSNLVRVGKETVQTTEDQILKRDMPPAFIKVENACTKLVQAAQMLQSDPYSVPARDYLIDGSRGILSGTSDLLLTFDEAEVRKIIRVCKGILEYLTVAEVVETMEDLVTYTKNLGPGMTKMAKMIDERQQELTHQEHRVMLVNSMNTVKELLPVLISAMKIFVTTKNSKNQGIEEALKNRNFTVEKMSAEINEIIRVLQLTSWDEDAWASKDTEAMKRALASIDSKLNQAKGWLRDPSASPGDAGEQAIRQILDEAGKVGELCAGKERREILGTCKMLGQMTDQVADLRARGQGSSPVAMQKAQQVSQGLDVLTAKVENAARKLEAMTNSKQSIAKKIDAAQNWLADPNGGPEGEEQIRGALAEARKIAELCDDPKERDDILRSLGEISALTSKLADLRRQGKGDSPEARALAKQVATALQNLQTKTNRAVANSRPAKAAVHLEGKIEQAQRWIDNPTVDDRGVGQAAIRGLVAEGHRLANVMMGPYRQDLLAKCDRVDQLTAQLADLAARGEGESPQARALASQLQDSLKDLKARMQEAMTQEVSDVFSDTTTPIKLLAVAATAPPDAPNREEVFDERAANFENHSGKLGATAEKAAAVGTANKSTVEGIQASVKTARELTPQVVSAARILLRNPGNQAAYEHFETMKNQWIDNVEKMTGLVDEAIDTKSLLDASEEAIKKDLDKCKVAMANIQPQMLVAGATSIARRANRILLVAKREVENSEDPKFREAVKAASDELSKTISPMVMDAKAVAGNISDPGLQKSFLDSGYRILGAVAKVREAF

koff [1]: 0.014 s⁻¹
kon [1]: 1e+06 M⁻¹ s⁻¹
Kd (vinculin T12 mutant): 1.9 nM
koff (vinculin T12 mutant): 0.021 s⁻¹
kon (vinculin T12 mutant): 1.1e+07 M⁻¹ s⁻¹
Kd (vinculin head (D1-D4)): 0.6 nM
koff (vinculin head (D1-D4)): 0.0022 s⁻¹
kon (vinculin head (D1-D4)): 3.7e+06 M⁻¹ s⁻¹
B1: talin R4-R6 domains (stretchable talin R4-R6 fragment) (domain or fragment, UniProt P26039 913-1357, looked up)
chain: LVQRLEHAAKQAAASATQTIAAAQHAASAPKASAGPQPLLVQSCKAVAEQIPLLVQGVRGSQAQPDSPSAQLALIAASQSFLQPGGKMVAAAKASVPTIQDQASAMQLSQCAKNLGTALAELRTAAQKAQEACGPLEMDSALSVVQNLEKDLQEIKAAARDGKLKPLPGETMEKCTQDLGNSTKAVSSAIAKLLGEIAQGNENYAGIAARDVAGGLRSLAQAARGVAALTSDPAVQAIVLDTASDVLDKASSLIEEAKKASGHPGDPESQQRLAQVAKAVTQALNRCVSCLPGQRDVDNALRAVGDASKRLLSDSLPPSTGTFQEAQSRLNEAAAGLNQAATELVQASRGTPQDLARASGRFGQDFSTFLEAGVEMAGQAPSQEDRAQVVSNLKGISMSSSKLLLAAKALSTDPASPNLKSQLAAAARAVTDSINQLITMCTQQA
modifications: N-terminus linked to a superparamagnetic bead through a 572-bp double strand DNA linker
